T1: Cyno Nectin4 (Cyno, UniProt Q96NY8 32-510 (human entry))
T1 construct: Expressed on HEK293 cells (HEK-cynoNectin4)
T1 chain: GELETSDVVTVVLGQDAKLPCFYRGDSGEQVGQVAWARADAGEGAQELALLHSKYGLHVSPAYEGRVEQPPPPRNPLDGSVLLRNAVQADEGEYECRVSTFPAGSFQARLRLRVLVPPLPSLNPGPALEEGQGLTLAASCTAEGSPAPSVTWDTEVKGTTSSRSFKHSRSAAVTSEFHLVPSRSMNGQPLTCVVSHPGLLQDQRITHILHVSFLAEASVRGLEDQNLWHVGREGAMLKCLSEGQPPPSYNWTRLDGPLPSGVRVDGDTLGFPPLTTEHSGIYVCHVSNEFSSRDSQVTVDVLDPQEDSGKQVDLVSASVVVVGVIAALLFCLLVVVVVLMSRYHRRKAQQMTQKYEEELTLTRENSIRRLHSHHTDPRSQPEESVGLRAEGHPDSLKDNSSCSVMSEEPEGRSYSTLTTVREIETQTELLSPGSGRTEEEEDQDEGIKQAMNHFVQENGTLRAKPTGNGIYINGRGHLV

T2: human Nectin-4(C-6His), Novoprotein Cat# CJ19 (human, UniProt Q96NY8 32-349)
T2 construct: Bought protein; also called recombinant human Nectin4 protein; antigen Nectin-4
T2 sequence: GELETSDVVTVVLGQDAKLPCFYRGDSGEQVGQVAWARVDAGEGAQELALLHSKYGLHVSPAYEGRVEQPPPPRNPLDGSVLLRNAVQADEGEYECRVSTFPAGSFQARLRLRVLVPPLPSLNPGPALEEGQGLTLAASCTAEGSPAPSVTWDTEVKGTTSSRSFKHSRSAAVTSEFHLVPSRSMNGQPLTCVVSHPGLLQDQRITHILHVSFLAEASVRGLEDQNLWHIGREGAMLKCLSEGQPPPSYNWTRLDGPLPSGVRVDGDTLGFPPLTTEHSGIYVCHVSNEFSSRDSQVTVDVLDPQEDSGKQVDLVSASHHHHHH

T3: human Nectin-1(C-6His), Novoprotein Cat# C492 (human, UniProt Q15223 31-334, limits assumed)
T3 sequence: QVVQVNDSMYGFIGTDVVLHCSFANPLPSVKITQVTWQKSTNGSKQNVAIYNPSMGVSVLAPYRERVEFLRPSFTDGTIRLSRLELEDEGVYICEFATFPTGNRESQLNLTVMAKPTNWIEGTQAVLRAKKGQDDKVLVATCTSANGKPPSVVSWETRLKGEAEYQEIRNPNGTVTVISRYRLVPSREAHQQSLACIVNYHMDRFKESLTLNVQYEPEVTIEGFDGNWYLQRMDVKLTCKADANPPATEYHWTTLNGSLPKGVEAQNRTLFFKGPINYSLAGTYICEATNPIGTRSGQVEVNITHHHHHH

T4: human Nectin-2(C-6His), Novoprotein Cat# C440 (human, UniProt Q92692 32-360, limits assumed)
T4 sequence: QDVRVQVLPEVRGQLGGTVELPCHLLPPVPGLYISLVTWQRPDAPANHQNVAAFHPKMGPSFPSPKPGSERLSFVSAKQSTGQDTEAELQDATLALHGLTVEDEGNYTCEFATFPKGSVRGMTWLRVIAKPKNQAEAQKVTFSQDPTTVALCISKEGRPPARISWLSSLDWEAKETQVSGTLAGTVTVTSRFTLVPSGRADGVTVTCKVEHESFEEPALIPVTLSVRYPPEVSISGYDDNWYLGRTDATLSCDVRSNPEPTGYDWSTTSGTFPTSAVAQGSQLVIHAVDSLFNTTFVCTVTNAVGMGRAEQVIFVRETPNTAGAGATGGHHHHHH

T5: human Nectin-4 (human, UniProt Q96NY8 32-510)
T5 construct: whole, on cells; Cell-surface target of the FACS, endocytosis and proliferation assays (CHO-huNectin4 S8 cells, BT474 cells); the assay field says which cells; also called huNectin4; PVRL4
T5 sequence (looked up): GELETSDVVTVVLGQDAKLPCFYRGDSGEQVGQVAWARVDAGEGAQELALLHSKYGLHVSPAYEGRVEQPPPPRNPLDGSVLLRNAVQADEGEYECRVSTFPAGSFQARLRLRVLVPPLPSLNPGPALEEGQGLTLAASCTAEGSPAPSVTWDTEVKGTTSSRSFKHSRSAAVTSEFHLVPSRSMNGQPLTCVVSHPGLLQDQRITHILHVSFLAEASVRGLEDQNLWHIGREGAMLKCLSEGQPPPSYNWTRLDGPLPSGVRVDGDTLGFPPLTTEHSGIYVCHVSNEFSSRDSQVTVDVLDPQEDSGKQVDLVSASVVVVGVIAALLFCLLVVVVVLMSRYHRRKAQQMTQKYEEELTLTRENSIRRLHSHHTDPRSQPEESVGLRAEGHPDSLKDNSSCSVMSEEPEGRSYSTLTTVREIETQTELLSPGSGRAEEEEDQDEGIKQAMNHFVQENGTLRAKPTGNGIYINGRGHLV


Tests used:
Cyno Nectin4 = target: T1, Cyno Nectin4; assay: FACS on HEK-cynoNectin4 cells
[1] = target: T2, human Nectin-4(C-6His), Novoprotein …; assay: ELISA, plate coated with 1 µg/ml human Nectin-4(C-6His), HRP-labelled secondary antibody, absorbance at 450 nm
Procedure: (§1) Plates were coated with 1 µg/ml of the antigens and incubated at 4° C. overnight; next, antibodies serially diluted were added into the plates. Finally, the HRP-labeled secondary antibody was added, and absorbance at 450 nm was detected.

[2] = target: T3, human Nectin-1(C-6His), Novoprotein …; assay: ELISA, plate coated with 1 µg/ml human Nectin-1(C-6His), absorbance at 450 nm. The text names only a goat anti-rabbit HRP secondary antibody
Procedure: as §1

[3] = target: T4, human Nectin-2(C-6His), Novoprotein …; assay: ELISA, plate coated with 1 µg/ml human Nectin-2(C-6His), absorbance at 450 nm. The text names only a goat anti-rabbit HRP secondary antibody
Procedure: as §1

human Nectin-4 [4] = target: T5, human Nectin-4; assay: FACS on BT474 cells
Procedure: The solutions of different concentrations were added to 384-well plates, 10 µl per well.
BT474 cells (breast cancer cells) expressing Nectin-4 on the cell surface were collected by centrifugation at 100 g at room temperature for 5 minutes, and then the cells were washed with PBS containing 0.5% BSA once and were centrifuged at 100 g at room temperature for 5 minutes. […] After incubation at 4° C. for 1 hour, fluorescently labeled goat anti-human IgG secondary antibody was added. After continued incubation at 4° C. for 1 hour, mean fluorescence readings of the cell populations were analyzed by a flow cytometer.
The experiment results of the binding of engineered humanized molecules of the present disclosure to BT474 cells by FACS assay are shown in panels 3B and 3C in FIG. 3 and Tables 6 and 7.

human Nectin-4 [5] = target: T5, human Nectin-4; assay: FACS on CHO-huNectin4 S8 cells

EC50 (Cyno Nectin4) [µg/mL] | EC50 (read off the curve) [1] [µg/mL] | binding result [3] | EC50 (human Nectin-4 [4]) [µg/mL] | EC50 (human Nectin-4 [5]) [µg/mL] | Binder | binding result [2]
0.948 to 2.07 | ~0.1 | no binding (tested: 10 µg/ml) | 0.0503 | 0.513 | Enfortumab (antibody, human IgG1, kappa, V domains shown, also called control antibody Enfortumab) VH: EVQLVESGGGLVQPGGSLRLSCAASGFTFSSYNMNWVRQAPGKGLEWVSYISSSSSTIYYADSVKGRFTISRDNAKNSLSLQMNSLRDEDTAVYYCARAYYYGMDVWGQGTTVTVSS VL: DIQMTQSPSSVSASVGDRVTITCRASQGISGWLAWYQQKPGKAPKFLIYAASTLQSGVPSRFSGSGSGTDFTLTISSLQPEDFATYYCQQANSFPPTFGGGTKVEIKR | no binding (tested: about 2.5 µg/ml (last point))
2.42 to 4.97 | ~0.09 | no binding (tested: 10 µg/ml) | 0.0528 | 0.801 | 42D20 hz10 (antibody, V domains shown, Humanized) VH: QVQLQESGPGLVKPSETLSLTCTVSGFSLIDYGVSWIRQPPGKGLEWIGVIWGDGKIYYNSVLKSRVTISKDNSKSQVSLKLSSVTAADTAVYYCAKQGGLLFYAMDYWGQGTLVTVSS VL: DIVMTQSPDSLAVSLGERATINCKSSQSLLNSYSQKNYLAWYQQKPGQPPKLLIYFASTRESGVPDRFSGSGSGTDFTLTISSLQAEDVAVYYCQQHYNTPFTFGAGTKLELKR | no binding (tested: about 2.5 µg/ml (last point))
